According to patent US20140106371A1 (DUBLIN CITY UNIVERSITY, published 2014):

B1: H50E (rPA-ILNm protein) (other)
chain: RGSHHHHHHGSMAWKGEVLANNEAGQVTSIIYNPGDVITIVAAGWASYGPTQKWGPQGDREEPDQGLICHDAFCGALVMKIGNSGTIPVNTGLFRWVAPNNVQGAITLIYNDVPGTYGNNSGSFSVNIGKDQS
B2: H50L (rPA-ILNm protein) (other)
chain: RGSHHHHHHGSMAWKGEVLANNEAGQVTSIIYNPGDVITIVAAGWASYGPTQKWGPQGDRELPDQGLICHDAFCGALVMKIGNSGTIPVNTGLFRWVAPNNVQGAITLIYNDVPGTYGNNSGSFSVNIGKDQS
B3: H50K (rPA-ILNm protein) (other)
chain: RGSHHHHHHGSMAWKGEVLANNEAGQVTSIIYNPGDVITIVAAGWASYGPTQKWGPQGDREKPDQGLICHDAFCGALVMKIGNSGTIPVNTGLFRWVAPNNVQGAITLIYNDVPGTYGNNSGSFSVNIGKDQS
B4: H50T (rPA-ILNm protein) (other)
chain: RGSHHHHHHGSMAWKGEVLANNEAGQVTSIIYNPGDVITIVAAGWASYGPTQKWGPQGDRETPDQGLICHDAFCGALVMKIGNSGTIPVNTGLFRWVAPNNVQGAITLIYNDVPGTYGNNSGSFSVNIGKDQS
B5: H50V (rPA-ILNm protein) (other)
chain: RGSHHHHHHGSMAWKGEVLANNEAGQVTSIIYNPGDVITIVAAGWASYGPTQKWGPQGDREVPDQGLICHDAFCGALVMKIGNSGTIPVNTGLFRWVAPNNVQGAITLIYNDVPGTYGNNSGSFSVNIGKDQS
B6: H50Q (rPA-ILNm protein) (other)
chain: RGSHHHHHHGSMAWKGEVLANNEAGQVTSIIYNPGDVITIVAAGWASYGPTQKWGPQGDREQPDQGLICHDAFCGALVMKIGNSGTIPVNTGLFRWVAPNNVQGAITLIYNDVPGTYGNNSGSFSVNIGKDQS
B7: H50P (rPA-ILNm protein) (other)
chain: RGSHHHHHHGSMAWKGEVLANNEAGQVTSIIYNPGDVITIVAAGWASYGPTQKWGPQGDREPPDQGLICHDAFCGALVMKIGNSGTIPVNTGLFRWVAPNNVQGAITLIYNDVPGTYGNNSGSFSVNIGKDQS
B8: H50A (rPA-ILNm protein) (other)
chain: AWKGEVLANNEAGQVTSIIYNPGDVITIVAAGWASYGPTQKWGPQGDREAPDQGLICHDAFCGALVMKIGNSGTIPVNTGLFRWVAPNNVQGAITLIYNDVPGTYGNNSGSFSVNIGKDQS
notes: not shown: N-terminal RGS-6HIS tag and added vector residues (pQE30)
B9: H50F (rPA-ILNm protein) (other)
chain: AWKGEVLANNEAGQVTSIIYNPGDVITIVAAGWASYGPTQKWGPQGDREFPDQGLICHDAFCGALVMKIGNSGTIPVNTGLFRWVAPNNVQGAITLIYNDVPGTYGNNSGSFSVNIGKDQS
notes: as for B8
B10: H50R (rPA-ILNm protein) (other)
chain: AWKGEVLANNEAGQVTSIIYNPGDVITIVAAGWASYGPTQKWGPQGDRERPDQGLICHDAFCGALVMKIGNSGTIPVNTGLFRWVAPNNVQGAITLIYNDVPGTYGNNSGSFSVNIGKDQS
notes: as for B8
B11: H50S (rPA-ILNm protein) (other)
chain: AWKGEVLANNEAGQVTSIIYNPGDVITIVAAGWASYGPTQKWGPQGDRESPDQGLICHDAFCGALVMKIGNSGTIPVNTGLFRWVAPNNVQGAITLIYNDVPGTYGNNSGSFSVNIGKDQS
notes: as for B8

What follows are binders tested against T1, asialotransferrin (human, UniProt P02787 20-698, N-linked glycans desialylated with neuraminidase (Clostridium perfingens), exposing terminal LacNAc (β1,4-linked galactose); partially desialylated by paragraph 70) (assay: qualitative ELLA).
T1 construct: Same polypeptide as transferrin; differs only in glycans; also called AsT
T1 sequence (P02787 20-698 limits assumed): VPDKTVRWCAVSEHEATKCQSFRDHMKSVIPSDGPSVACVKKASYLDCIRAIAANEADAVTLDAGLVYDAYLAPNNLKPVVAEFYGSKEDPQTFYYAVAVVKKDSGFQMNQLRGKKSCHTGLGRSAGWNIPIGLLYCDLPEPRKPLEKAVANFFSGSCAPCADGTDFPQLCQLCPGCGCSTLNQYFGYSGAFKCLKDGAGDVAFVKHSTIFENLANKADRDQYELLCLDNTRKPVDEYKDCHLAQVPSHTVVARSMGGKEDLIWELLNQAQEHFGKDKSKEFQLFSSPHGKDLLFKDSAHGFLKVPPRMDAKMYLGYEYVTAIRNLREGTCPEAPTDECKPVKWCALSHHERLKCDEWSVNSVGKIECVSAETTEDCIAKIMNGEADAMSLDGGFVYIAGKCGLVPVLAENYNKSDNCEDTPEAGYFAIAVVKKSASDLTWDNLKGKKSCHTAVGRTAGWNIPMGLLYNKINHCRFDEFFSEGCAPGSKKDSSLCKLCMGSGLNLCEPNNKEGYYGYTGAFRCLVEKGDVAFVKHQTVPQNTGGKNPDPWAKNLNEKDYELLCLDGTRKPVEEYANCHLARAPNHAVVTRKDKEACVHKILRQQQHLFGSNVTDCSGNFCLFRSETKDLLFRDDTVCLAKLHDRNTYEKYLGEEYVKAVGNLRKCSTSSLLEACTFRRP
B1: no binding (tested: 2 µg mL^-1). B2: no binding (tested: 2 µg mL^-1). B3: no binding (tested: 2 µg mL^-1). B4: no binding (tested: 2 µg mL^-1). B5: no binding (tested: 2 µg mL^-1). B6: no binding (tested: 2 µg mL^-1). B7: no binding (tested: 2 µg mL^-1). B8: no binding (tested: 2 µg mL^-1). B9: no binding (tested: 2 µg mL^-1). B10: no binding (tested: 2 µg mL^-1). B11: no binding (tested: 2 µg mL^-1).
